Experimental data taken from IntAct's records for PubMed 18524952.

B1: DNA replication licensing factor MCM3 (Mus musculus), P25206 (parent)
chain: MAGTVVLDDVELREAQRDYLDFLDDEEDQGIYQNKVRELISDNQYRLIVSVNDLRRKNEKRANRLLNNAFEELVAFQRALKDFVASIDATYAKQYEEFYIGLEGSFGSKHVSPRTLTSCFLSCVVCVEGIVTKCSLVRPKVVRSVHYCPATKKTIERRYSDLTTLVAFPSSSVYPTKDEENNPLETEYGLSVYKDHQTITIQEMPEKAPAGQLPRSVDVILDDDLVDKVKPGDRIQVVGTYRCLPGKKGCYTSGTFRTVLIACNVKQMSKDIQPAFSADDIAKIKKFSKTRSKDVFEQLARSLAPSIHGHDYVKKAILCLLLGGVERELENGSHIRGDINILLIGDPSVAKSQLLRYVLCTAPRAIPTTGRGSSGVGLTAAVTTDQETGERRLEAGAMVLADRGVVCIDEFDKMSDMDRTAIHEVMEQGRVTIAKAGIHARLNARCSVLAAANPVYGRYDQYKTPMENIGLQDSLLSRFDLLFIMLDQMDPEQDREISDHVLRMHQYRAPGEQDGDALPLGSSVDILATDDPDFTQDDQQDTRIYEKHDSLLHGTKKKKEKMVSAAFMKKYIHVAKIIKPTLTQESAAYIAEEYSRLRSQDSMSSDTARTSPVTARTLETLIRLATAHAKARMSKTVDLQDAEEAVELVQYAYFKKVLEKEKKRKKASEDESDLEDEEEKSQEDTEQKRKRRKTHAKDGESYDPYDFSEAETQMPQVHTPKTDDSQEKTDDSQETQDSQKVELSEPRLKAFKAALLEVFQEAHEQSVGMLHLTESINRNREEPFSSEEIQACLSRMQDDNQVMVSEGIVFLI
B2: DNA replication licensing factor MCM3 (Mus musculus), P25206 (parent)
chain: B1 chain
partner: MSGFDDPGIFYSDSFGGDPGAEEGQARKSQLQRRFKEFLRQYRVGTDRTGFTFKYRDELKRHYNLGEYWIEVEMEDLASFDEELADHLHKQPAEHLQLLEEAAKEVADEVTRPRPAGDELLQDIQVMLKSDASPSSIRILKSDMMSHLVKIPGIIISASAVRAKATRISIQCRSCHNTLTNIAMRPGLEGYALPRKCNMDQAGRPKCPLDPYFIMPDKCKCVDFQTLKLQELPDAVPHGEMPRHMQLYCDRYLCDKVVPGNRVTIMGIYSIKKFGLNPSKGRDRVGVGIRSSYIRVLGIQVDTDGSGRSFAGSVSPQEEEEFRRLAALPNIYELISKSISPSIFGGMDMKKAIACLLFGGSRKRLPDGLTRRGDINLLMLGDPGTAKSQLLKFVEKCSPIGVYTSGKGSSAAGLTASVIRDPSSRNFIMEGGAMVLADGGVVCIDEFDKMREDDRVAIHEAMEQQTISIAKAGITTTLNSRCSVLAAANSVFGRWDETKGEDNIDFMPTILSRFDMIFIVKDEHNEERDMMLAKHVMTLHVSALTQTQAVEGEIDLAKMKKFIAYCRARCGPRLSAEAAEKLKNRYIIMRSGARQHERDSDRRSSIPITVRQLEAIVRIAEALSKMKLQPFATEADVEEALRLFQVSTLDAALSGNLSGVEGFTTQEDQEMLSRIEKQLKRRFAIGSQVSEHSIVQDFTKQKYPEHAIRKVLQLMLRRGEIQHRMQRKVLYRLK

Variants of: B1
Conditions: with mcm2_mouse Mcm2, P97310
Sequence of mcm2_mouse Mcm2, P97310 (P97310 whole entry): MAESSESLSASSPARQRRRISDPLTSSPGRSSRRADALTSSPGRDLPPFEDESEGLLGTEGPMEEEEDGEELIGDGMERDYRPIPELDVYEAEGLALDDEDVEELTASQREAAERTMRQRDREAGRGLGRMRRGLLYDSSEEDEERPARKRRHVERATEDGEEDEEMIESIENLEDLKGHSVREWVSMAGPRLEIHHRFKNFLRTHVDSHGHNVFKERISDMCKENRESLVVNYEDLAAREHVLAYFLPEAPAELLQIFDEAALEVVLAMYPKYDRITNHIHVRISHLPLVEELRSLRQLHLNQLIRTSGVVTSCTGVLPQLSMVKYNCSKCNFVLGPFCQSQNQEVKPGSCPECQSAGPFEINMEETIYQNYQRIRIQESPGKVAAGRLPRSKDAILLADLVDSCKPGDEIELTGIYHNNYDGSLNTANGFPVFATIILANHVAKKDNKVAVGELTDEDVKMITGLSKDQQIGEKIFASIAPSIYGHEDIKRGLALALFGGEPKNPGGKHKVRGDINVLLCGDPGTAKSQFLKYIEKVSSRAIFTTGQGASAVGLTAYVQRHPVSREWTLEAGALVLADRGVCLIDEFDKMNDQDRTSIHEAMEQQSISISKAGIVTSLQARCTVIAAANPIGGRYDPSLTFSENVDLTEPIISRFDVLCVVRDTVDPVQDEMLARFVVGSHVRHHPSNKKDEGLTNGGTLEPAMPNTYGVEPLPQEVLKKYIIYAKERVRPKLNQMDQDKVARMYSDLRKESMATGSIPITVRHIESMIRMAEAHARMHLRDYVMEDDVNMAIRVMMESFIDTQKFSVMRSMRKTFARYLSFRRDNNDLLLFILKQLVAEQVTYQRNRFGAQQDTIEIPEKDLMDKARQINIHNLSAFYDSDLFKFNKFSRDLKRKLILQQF

effect of a mutation on the interaction | Variant
disrupting interaction | S112A

Variants of: B1
Conditions: with mcm7_mouse Mcm7, Q61881
Sequence of mcm7_mouse Mcm7, Q61881 (Q61881 whole entry): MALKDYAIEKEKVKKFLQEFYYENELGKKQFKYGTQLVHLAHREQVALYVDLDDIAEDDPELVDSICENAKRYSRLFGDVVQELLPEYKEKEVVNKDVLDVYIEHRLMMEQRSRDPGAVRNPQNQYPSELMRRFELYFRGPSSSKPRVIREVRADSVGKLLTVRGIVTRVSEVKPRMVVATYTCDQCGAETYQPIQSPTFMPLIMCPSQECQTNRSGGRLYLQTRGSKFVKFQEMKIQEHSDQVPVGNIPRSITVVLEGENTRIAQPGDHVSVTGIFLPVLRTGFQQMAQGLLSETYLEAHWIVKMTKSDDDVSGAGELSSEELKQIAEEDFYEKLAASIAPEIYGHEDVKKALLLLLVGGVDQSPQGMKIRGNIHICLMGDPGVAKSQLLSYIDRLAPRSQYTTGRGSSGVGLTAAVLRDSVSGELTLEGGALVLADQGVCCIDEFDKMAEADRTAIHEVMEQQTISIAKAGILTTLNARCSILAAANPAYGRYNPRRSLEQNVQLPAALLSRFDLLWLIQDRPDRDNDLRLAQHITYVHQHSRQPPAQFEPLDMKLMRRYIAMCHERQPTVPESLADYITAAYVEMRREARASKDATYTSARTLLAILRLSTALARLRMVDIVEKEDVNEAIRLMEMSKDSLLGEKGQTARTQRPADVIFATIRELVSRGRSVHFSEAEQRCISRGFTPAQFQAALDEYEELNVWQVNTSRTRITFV

effect of a mutation on the interaction | Variant
disrupting interaction | S112A

Variants of: B2
Conditions: with mcm5_mouse Mcm5, P49718

effect of a mutation on the interaction | Variant
decreasing interaction | S112A;T719A
disrupting interaction | S112A;T464A;S611A;T719A
decreasing interaction | S112A
decreasing interaction | S112A;S611A
